In general, EC50 refers to the midpoint of the concentration-response curve.

Where a chain is given by its changes, count along the chain named.

The labels stand for the following.
B1: M1IC-PG2-1 (bispecific antibody, human IgG1, kappa)
chain: QVQLVESGGGVVQPGRSLRLSCAASGFTFSTYAMNWVRQAPGKGLEWVARIRSKYNNYATYYADSVKDRFTISRDDSKNTLYLQMNSLRAEDTAVYYCARHGNFGNSYVSWFAYWGQGTLVTVSSGGGGSGGGGSGGGGSQTVVTQEPSLTVSPGGTVTLTCRSSTGAVTTSNYANWVQQKPGQAPRGLIGGTNKRAPGVPARFSGSLLGGKAALTLSGVQPEDEAEYYCALWYSNLWVFGGGTKVEIKGGGGSDKTHTCPPPPAPPVAGPSVFLFPPKPKDTLMISRTPEVTCVVVDVSHEDPEVQFNWYVDGVEVHNAKTKPREEQFNSTFRVVSVLTVVHQDWLNGKEYKCKVSNKGLPAPIEKTISKTKGQPREPQVCTLPPSRDELTKNQVSLSCAVKGFYPSDIAVEWESNGQPENNYKTTPPVLDSDGSFFLVSKLTVDKSRWQQGNVFSCSVMHEALHNHYTQKSLSLSPGK
heavy: EVKLDETGGGLVQPGRPMKLSCVASGFTFSDYWMNWVRQSPEKGLEWVAQIRNKPYNYETYYSDSVKGRFTISRDDSKSSVYLQMNNLRVEDMGIYYCTGSYYGMDYWGQGTSVTVSSASTKGPSVFPLAPSSKSTSGGTAALGCLVKDYFPEPVTVSWNSGALTSGVHTFPAVLQSSGLYSLSSVVTVPSSSLGTQTYICNVNHKPSNTKVDKKVEPKSCDKTHTCPPPPAPPVAGPSVFLFPPKPKDTLMISRTPEVTCVVVDVSHEDPEVQFNWYVDGVEVHNAKTKPREEQFNSTFRVVSVLTVVHQDWLNGKEYKCKVSNKGLPAPIEKTISKTKGQPREPQVYTLPPCRDELTKNQVSLWCLVKGFYPSDIAVEWESNGQPENNYKTTPPVLDSDGSFFLYSKLTVDKSRWQQGNVFSCSVMHEALHNHYTQKSLSLSPGK
light: DVVMTQTPLSLPVSLGDQASISCRSSQSLVHSNGNTYLRWYLQKPGQSPKVLIYKVSNRFSGVPDRFSGSGSGTDFTLKISRVEAEDLGVYFCSQSTHVPWTFGGGTKLEIKRTVAAPSVFIFPPSDEQLKSGTASVVCLLNNFYPREAKVQWKVDNALQSGNSQESVTEQDSKDSTYSLSSTLTLSKADYEKHKVYACEVTHQGLSSPVTKSFNRGEC
notes: structure 1 isotype control; CH2 PG2CH2
B2: PDL1-M1-G2 (bispecific antibody)
chain: B1 chain with G250R, G252R, P263C
heavy: not shown
light: not shown
notes: structure 1; PD-L1 x CD3; CH2 G2CH2
B3: M1IC-SG2-1 (bispecific antibody, human IgG1, kappa)
chain: B1 chain with P263S
heavy: B1 heavy with P230S
light: B1 light
notes: structure 1 isotype control; CH2 SG2CH2
B4: PDL1-M1-SG2 (bispecific antibody)
chain: B1 chain with G250R, G252R, P263S
heavy: not shown
light: not shown
notes: structure 1; PD-L1 x CD3; CH2 SG2CH2
B5: PDL1-M1-FES (bispecific antibody)
chain: QVQLVESGGGVVQPGRSLRLSCAASGFTFSTYAMNWVRQAPGKGLEWVARIRSKYNNYATYYADSVKDRFTISRDDSKNTLYLQMNSLRAEDTAVYYCARHGNFGNSYVSWFAYWGQGTLVTVSSGGGGSGGGGSGGGGSQTVVTQEPSLTVSPGGTVTLTCRSSTGAVTTSNYANWVQQKPGQAPRGLIGGTNKRAPGVPARFSGSLLGGKAALTLSGVQPEDEAEYYCALWYSNLWVFGGGTKVEIKRGRGSDKTHTCPPCPAPEFEGGPSVFLFPPKPKDTLMISRTPEVTCVVVDVSHEDPEVKFNWYVDGVEVHNAKTKPREEQYNSTYRVVSVLTVLHQDWLNGKEYKCKVSNKALPASIEKTISKAKGQPREPQVCTLPPSRDELTKNQVSLSCAVKGFYPSDIAVEWESNGQPENNYKTTPPVLDSDGSFFLVSKLTVDKSRWQQGNVFSCSVMHEALHNHYTQKSLSLSPGK
heavy: not shown
light: not shown
notes: structure 1; PD-L1 x CD3; CH2 FES
B6: PDL1-M1-LALA (bispecific antibody)
chain: B5 chain with F268A, E269A, S365P
heavy: not shown
light: not shown
notes: structure 1; PD-L1 x CD3; CH2 LALA

The first assay concerns the target T1, Human CD3ε (human, UniProt P07766 23-126).
T1 construct: CD3 on T cells isolated from human whole blood
As to the kind of experiment: flow cytometry, human T cells. The text has this:
1) Cell preparation: T cells isolated from CD3-positive human whole blood were used for a CD3 end affinity detection of multifunctional antibody molecule; positive tumor cells of corresponding antigen were used for detecting affinity of tumor antigen; for example, CD38-positive MM. 1S cells (purchased from the Cell Resource Center of Shanghai Institutes for Biological Sciences, Chinese Academy of Sciences) or RPMI 8226 cells (purchased from the Cell Resource Center of Shanghai Institutes for Biological Sciences, Chinese Academy of Sciences) were used for CD38 antigen detection, and PD-L1 positive H358 cells (purchased from the Cell Resource Center of Shanghai Institutes for Biological Sciences, Chinese Academy of Sciences) were used for PD-L1 antigen detection, and so on. The cells were resuspended with 1% FBS-PBS, adjusted to a density of 4×10⁶/ml, and 50 μl of cells were taken from each well, and then plated at 2×10⁵ per well. Cell plating was operated on ice
2) Addition of the antibody: according to the experimental design, the antibody was diluted gradually, and dilution of antibody was operated on ice. For example, the initial concentration of antibody for dilution was 3000 nM, and the antibody was diluted by 3 times with 11 concentration gradients. The diluted antibody was added to a cell well at 50 μl per well, mixed well, and shaked and incubated at 4° C. 1100 rpm/min for 2 h; after washing, the cells were resuspend in 1% FBS-PBS, and a diluted secondary antibody PE anti-human IgG FC (Biolegend, 409304) was added with a final concentration of 8 ug/ml and a volume of 50 μl/well. At the same time, a well only added with cells and secondary antibody was set as a control, the components were mixed well, and incubated under shaking at 1100 rpm/min at 4° C. for 1 h;
5) Data analysis: the data was analyzed by a flow analysis software FlowJo 7.6 thereby obtaining an average fluorescence intensity of the specific antibody concentration, plotted by a Graphpad Prism 5 with the antibody concentration (nM) as an abscissa and the average fluorescence intensity as an ordinate; the EC50 value was calculated by the method of One site—Specific binding, and the EC50 value indicated the cell affinity of the antibody to the corresponding target antigen.
Regarding B1, the response was half-maximal at 116 nM (EC50).

B2: the EC50 came out at 191 nM.

As for B3, the concentration for a half-maximal effect (EC50) is 122 nM.

Turning to B4, the concentration for a half-maximal effect (EC50) was 177 nM.

For B5, the EC50 is 200 nM.

As for B6, the response was half-maximal at 153 nM (EC50).

For a further assay, the target named is T2, Monkey CD3 (monkey).
T2 construct: whole, on cells; also called CD3 of monkey CD3 positive T cells
As to the kind of experiment: flow cytometry, monkey T cells. (Flow cytometry measures light scatter and fluorescence of single cells or particles in a stream.)
In turn, B1 came in with a concentration giving a half-maximal response (EC50) of 146 nM.

For the molecule B2, a half-maximal effect (EC50) was put at 239 nM.

Consider B3, for which the midpoint of the response, the EC50, lay at 222 nM.

The molecule B4 yielded an EC50 of 194 nM.

B5 had an EC50 of 207 nM.

For B6, it took 196 nM to reach a half-maximal effect (EC50).

The record behind these values is patent US20220098307A1 (WUHAN YZY BIOPHARMA, published 2022).
